# B1: LNT101: endolysin derived from bacteriophage PBPA90, amino acid sequence SEQ ID NO: 1 (259 aa), purified with 6× His tag (protein)
# chain: MGTVLKRGDRGSAVEDLQMKLRVAGYAVSADGIFGGDTEKAVRDFQASKALVVDGKVGPATLAELAKSATVPAKWEAIPFPTANKSRSAAMPTLNAVGAMTGTDSRLLATFASIESAFDYTVKASTSSATGWFQFLDATWDDMIKAHGSKYGIPKDPTRALRKDPRANALMGAEFLKGNAAVLRPVINREPSDTDLYLAHFLGAGGAKKFLSADQKTLGEVLFPKPAKANPSIFSNKGVPRTLAEIYKLFEDKVSKHRA
# modifications: 6xHis tag; synthetic_Endolysin LNT101
# B2: LNT103: fusion polypeptide [Cecropin A]-[linker (GSGSGS)]-[endolysin LNT102]; SEQ ID NO: 15 (MAS, His tag) used in the tests (protein)
# chain: MASKWKLFKKIEKVGQNIRDGIIKAGPAVAVVGQATQIAKGSGSGSMGTVLKRGDRGSAVEDLQMKLNVAGYNLSADGIFGGDTEKAVRDVQAGAGLVVDGKVGPKTLYAIAKSATVPAKWEAIPFPTANKSRSAAMPTLNAVGAMTGVDSRLLATFASIESAFDYTVKAKTSSATGWFQFLDATWDDMIKAYGSKYGIPKDPTRALRKDPRANALMGAEFIKGNAAVLRPVINREPSDTDLYLAHFLGAGGAKKFLSADQKTLGEVLFPKPAKANPSIFSNKGVPRTLAEIYKLFEDKVSKHRALEHHHHHH
# modifications: synthetic_Fusion Polypeptide LNT103 with MAS, His tag, and extra sequence
# Experiments:
# Pseudomonas aeruginosa = assay: CFU reduction test (killing ability in vitro); assay type: cell-based
# Protocol: For this, the endolysin LNT101 at a concentration of 0.1, 0.5, 1.0 μM and Pseudomonas aeruginosa (ATCC 13388) […] CFU were added so that the final volume was 200 μl to reaction buffer (20 mM Tris-Cl, pH 7.5) and they were left at 37° C. for […]. In 30 minutes, 1 hour and 2 hours, the number of colonies of Pseudomonas aeruginosa was confirmed, and the result was shown in FIG. 3.
# In addition, that the LNT101 endolysin had the antibacterial ability in various gram negative bacterium was confirmed by a CFU reduction test, and the result was shown in Table 2 below.
# A. baumannii = assay: MIC and MBC, broth microdilution in CAA media; assay type: cell-based
# Protocol: In addition, MIC (Minimal Inhibitory Concentration) and MBC (Minimal Bactericidal Concentration) of the fusion polypeptide LNT103 were measured. […] Specifically, the LNT103 was treated at a concentration of 64 μg/ml to a 96 well microplate row A, and the LNT103 was treated at a concentration where serial dilution was performed by ½ in rows B-G. To the row H, LNT103 was not treated. After that, the corresponding bacterium strain (type or QC, CCARM and clinical separation strain; See Tables 2-4) was treated in an amount of 5×10^5 CFU/ml, total 100 μl in all wells. Then, it was cultured at 37° C. for 18 hours. MIC was determined to be the lowest concentration at which no colonies were identified by confirming the number of the colonies in each well.
# [1] = test system: Acinetobacter baumannii (ATCC 19606); assay: FIC index, combination of colistin and LNT103; assay type: cell-based; details: LNT103 in combination with colistin (polymyxin E)
# Protocol: The synergy effect of killing ability against gram negative bacterium by combination treatment of a polymyxin-based antibiotic having a mechanism acting on the cell membrane of bacterium and the fusion polypeptide LNT103 was confirmed. Specifically, colistin (polymyxin E) of […] was treated to a 96 well microplate column 1, and it was treated at a concentration where serial dilution was performed by ½ in columns 2-11. The LNT103 of 16 μg/ml was treated to row A, and it was treated at a concentration where serial dilution was performed by ½ in rows B-G. After that, Acinetobacter baumannii (ATCC 19606) was treated in an amount of 5×10^5 CFU/ml, total 100 μl in all wells. Then, it was cultured at 37° C. for 18 hours, and the FIC (Fractional Inhibitory Concentration) index value was calculated by the following equation: FIC index=FICA+FICB=(CA/MICA)+(CB/MICB)
# (CA and CB are each concentration of substances treated in combination (polymyxin E and LNT103), and MICA and MICB are MIC of single drug,
# FIC value: synergy effect <0.5; antagonism >4; additive 0.5-4)
# [2] = test system: Acinetobacter baumannii ATCC 19606; assay: Acinetobacter baumannii systemic infection mouse model, viability; assay type: in vivo; details: ICR male mice; LNT103 20 mpk and 100 mpk, subcutaneous injection 1 hour and 4 hours after infection; comparative colistin 20 mpk
# Protocol: For in vivo effectivity evaluation of the fusion polypeptide LNT103, the viability was confirmed in an Acinetobacter baumannii ATCC 19606 systemic infection mouse model was confirmed.
# The process of progressing an animal experiment was as follows. Mice were used when ICR male 4-week-old mice were purchased and a one-week adaptation period was passed, and the weight was 20˜21 g at 5-6 weeks of age. The Acinetobacter bacteria were mixed with 10% mucin at 1:1, and 0.5 ml of 2×10^8 CFU/ml (5% mucin) of the bacterial solution was inoculated intraperitoneally into mice. In 1 hour and 4 hours after infection, LNT103 20 mpk and LNT103 100 mpk, and colistin 20 mpk as a comparative group were administered, respectively, through a subcutaneous injection.
# [3] = A. baumannii 643(Kyungpook National University)
# [4] = A. baumannii 3680(Gyeongsang National University)
molecule,measurement,setting,value
B1,killing ability against Pseudomonas aeruginosa (number of colonies),"Pseudomonas aeruginosa; ATCC 13388 10^6 CFU, 0.1, 0.5, 1.0 μM, 30 minutes, 1 hour and 2 hours, 37° C.",had the killing ability against Pseudomonas aeruginosa in all the tested treatment dose and time
same,CFU reduction,Pseudomonas aeruginosa; P. aeruginosa ATCC 13388,◯ (‘◯’ means reduction of 0.5 log CFU or more through the CFU reduction assay)
same,CFU reduction,Pseudomonas aeruginosa; P. aeruginosa ATCC 15522,◯ (‘◯’ means reduction of 0.5 log CFU or more through the CFU reduction assay)
same,CFU reduction,Pseudomonas aeruginosa; P. aeruginosa CCARM 2092,◯ (‘◯’ means reduction of 0.5 log CFU or more through the CFU reduction assay)
same,CFU reduction,Pseudomonas aeruginosa; P. aeruginosa CCARM 2134,◯ (‘◯’ means reduction of 0.5 log CFU or more through the CFU reduction assay)
same,CFU reduction,Pseudomonas aeruginosa; P. aeruginosa CCARM 2144,◯ (‘◯’ means reduction of 0.5 log CFU or more through the CFU reduction assay)
same,CFU reduction,Pseudomonas aeruginosa; P. aeruginosa CCARM 2326,◯ (‘◯’ means reduction of 0.5 log CFU or more through the CFU reduction assay)
same,CFU reduction,Pseudomonas aeruginosa; P. aeruginosa F141,◯ (‘◯’ means reduction of 0.5 log CFU or more through the CFU reduction assay)
same,CFU reduction,Pseudomonas aeruginosa; P. aeruginosa PAO1,◯ (‘◯’ means reduction of 0.5 log CFU or more through the CFU reduction assay)
B2,MBC,A. baumannii; [3],16 µg/mL
same,MIC,A. baumannii; [3],8 µg/mL
same,MBC,A. baumannii; [4],8 µg/mL
same,MIC,A. baumannii; [4],8 µg/mL
same,MBC,A. baumannii; A. baumannii ATCC 17978,8 µg/mL
same,MIC,A. baumannii; A. baumannii ATCC 17978,8 µg/mL
same,MBC,A. baumannii; A. baumannii ATCT 19606,8 µg/mL
same,MIC,A. baumannii; A. baumannii ATCT 19606,8 µg/mL
same,MBC,A. baumannii; A. baumannii CCARM 12001,8 µg/mL
same,MIC,A. baumannii; A. baumannii CCARM 12001,8 µg/mL
same,MBC,A. baumannii; A. baumannii CCARM 12015,16 µg/mL
same,MIC,A. baumannii; A. baumannii CCARM 12015,16 µg/mL
same,MBC,A. baumannii; A. baumannii CCARM 12026,8 µg/mL
same,MIC,A. baumannii; A. baumannii CCARM 12026,8 µg/mL
same,MBC,A. baumannii; A. baumannii CCARM 12035,8 µg/mL
same,MIC,A. baumannii; A. baumannii CCARM 12035,8 µg/mL
same,MBC,A. baumannii; A. baumannii CCARM 12202,8 µg/mL
same,MIC,A. baumannii; A. baumannii CCARM 12202,8 µg/mL
same,MBC,A. baumannii; A. baumannii F4,16 µg/mL
same,MIC,A. baumannii; A. baumannii F4,16 µg/mL
same,MBC,A. baumannii; A. baumannii F15,8 µg/mL
same,MIC,A. baumannii; A. baumannii F15,8 µg/mL
same,MBC,A. baumannii; A. baumannii F65,4 µg/mL
same,MIC,A. baumannii; A. baumannii F65,4 µg/mL
same,MBC,A. baumannii; A. baumannii F66,4 µg/mL
same,MIC,A. baumannii; A. baumannii F66,4 µg/mL
same,MBC,A. baumannii; A. baumannii F67,8 µg/mL
same,MIC,A. baumannii; A. baumannii F67,8 µg/mL
same,MBC,A. baumannii; A. baumannii F68,4 µg/mL
same,MIC,A. baumannii; A. baumannii F68,4 µg/mL
same,MBC,A. baumannii; A. baumannii F69,8 µg/mL
same,MIC,A. baumannii; A. baumannii F69,8 µg/mL
same,MBC,A. baumannii; A. baumannii F70,16 µg/mL
same,MIC,A. baumannii; A. baumannii F70,16 µg/mL
same,MBC,A. baumannii; A. baumannii F71,8 µg/mL
same,MIC,A. baumannii; A. baumannii F71,8 µg/mL
same,MBC,A. baumannii; A. baumannii KACC 13090,8 µg/mL
same,MIC,A. baumannii; A. baumannii KACC 13090,8 µg/mL
same,MBC,A. baumannii; A. baumannii KACC 14233,8 µg/mL
same,MIC,A. baumannii; A. baumannii KACC 14233,8 µg/mL
same,FIC index value,"[1]; 5×10^5 CFU/ml, 37° C. 18 hours",0.375
same,interaction of the two substances by FIC index,[1]; synergy effect <0.5,there was a synergy effect between the two substances
same,viability for 96 hours,[2],higher viability compared to the non-administration group (control) and comparative group (colistin administration group)
